# The nanobody polyreactivity screen of Harvey et al. (2022)
# Test: yeast display, Sf9 membrane polyspecificity reagent, FACS + sequencing; frameworks hold sequencing errors
# Outline: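 A nanobody's polyreactivity label depends on the gate it was sorted from. Yeast display cells were stained with 10% biotinylated, detergent-solubilized Sf9 membrane reagent for 1 hour at 4 °C, enriched on streptavidin microbeads and sorted by FACS. The low and high (top ~1%) gates were set on anti-HA fluorescence for expression and streptavidin fluorescence for reagent binding.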
row,Sequence,polyreactivity (PSR sort gate)
1,QVQLVESGGGLVQAGGSLRLSCAASGFIFGNNDMGWNRQAPGKERELVAGITWSGSSTYYADSVKGRFTISRDNAKNTVYLQMNSLKPEDTAVYYCARDGNDGYEYWGQGTQVTVSS,high polyreactivity
2,QVQLVESGGGLVQAGGSLRLSCAASGFIFGPNAMGWYRQAPAKERELVAAISYSGGRTYYADSVKGRFTISRDNAKNTVYLQMNSLKPEDTSVYYCAADAYWYGRSYYWGQGTQVTVSS,high polyreactivity
3,QVQLVESGGGLVQAGGSLRLSCAASGFIFGPNAMGWYRQAPGKERELVAAIRWSSGTTYYADSVKGRFTISRDNAKNTVSLQMNSLKPEDTAVYYCAAGPYVSYYWGQGTQVTVSS,low polyreactivity
4,QVQLVESGGGLVQAGGSLRLSCAASGFIFGQYAMGWYRQAPGKERELVAAISWSGGRTNYADSVKGRFTISRDNAKNTVYLQMNSLKPEDTAVYYCAARKGKYPQYTYGYWGQGTQVTVSS,high polyreactivity
5,QVQLVESGGGLVQAGGSLRLSCAASGFIFGRKSMGWYRQAPGKERELVAAISSGDSTYYADSVKGRFTISRDNAKNTVYLQMNSLKPEDTAVYYCAARLVRQQSRPKGGYWGQGTQVTVSS,high polyreactivity
6,QVQLVESGGGLVQAGGSLRLSCAASGFIFGRNAMGWYRQAPGKEREFVAAITRIGGNTYYADSVKGRFTISRDNAKNTVYLQMNSLKPEDTAVYYCAARLSYFHAYGFYWGQGTQVTVSS,high polyreactivity
7,QVQLVESGGGLVQAGGSLRLSCAASGFIFGRYAMGWYRQAPGKERELVARITGIGTRTYYADSVKGRFTISRDNAKNTVYLQMNSLKPEDTAVYYCAVRPFYWGQGTQVTVSS,high polyreactivity
8,QVQLVESGGGLVQAGGSLRLSCAASGFIFGRYTMGWYRQAPGKERELVAAISGSDVSTYYADSVKGRFTISRDNAKITVYLQMNRLKPEDTAVYYCAADAPWAYYEYDYWGQGTQVTVSS,low polyreactivity
9,QVQLVESGGGLVQAGGSLRLSCAASGFIFGRYTMGWYRQAPGKERELVAAISGSDVSTYYADSVKGRFTISRDNAKNTVYLQMNSLKPEDTAVYYCAADAPWAYYEYDYWGQGTQVTVSS,low polyreactivity
10,QVQLVESGGGLVQAGGSLRLSCAASGFIFGSYAMGWYRQAPGKERELVAAISWSGASTYYADSVKGRFTISRDKAKNTVYLQMNSLKPEDTAVYYCAAVSRYGWYDYWGQGTQVTVSS,high polyreactivity
11,QVQLVESGGGLVQAGGSLRLSCAASGFIFGTYAMGWYRQAPGKEREFVAAITTSGSSTRYADSVKGRFTISRDNAKNTVYLQMNSLKPEDTAVYYCAARNRTFFQPTYYYWGQGTQVTVSS,high polyreactivity
12,QVQLVESGGGLVQAGGSLRLSCAASGFIFGTYVMGWYRQAPGKERELVAAISESGGRTYYADSVKGRFTISRDNAKNTVYLQMNSLKPEDTAVYYCNAPHHRYDWGQGTQVTVSS,high polyreactivity
13,QVQLVESGGGLVQAGGSLRLSCAASGFIFGVNTMGWYRQAPGKERELVAAINSGGSTNYADSVKGRFTISRDNAKNTVYLLMNSLKPEDTAVYYCAVRHFWYRWGWYNYWGQGTEVTVSS,high polyreactivity
14,QVQLVESGGGLVQAGGSLRLSCAASGFIFGVYAKGWYRQAPGKERELVAAISGSGVRTYYADSVKGRFTISRDNAKNTLYLQMNSLKPEDTAVYYCAARRGFVRPYNYWGQGTQVTVSS,high polyreactivity
15,QVQLVESGGGLVQAGGSLRLSCAASGFIFGVYAMGWYRQAPGKERELVAAITSTGSTYYADSVKGRFTISRDNAKNTVYLQMNSLKPEDTAVYYCATYYWLGLSLYDYWGQGTQVTVSS,low polyreactivity
16,QVQLVESGGGLVQAGGSLRLSCAASGFIFGVYAMRWYRQAPGKERELVAAISYRTGTTYYADSVKGRFTISRDNAKNTVYLQMNSLKTEDTAVYYCNAAVRGVGELDYWGQGTQVTVSS,high polyreactivity
17,QVQLVESGGGLVQAGGSLRLSCAASGFIFGVYDMGWSRQAPGKERELVAAIDSVGSTYYADSVKGRFTISRDNAYNTVYLQMNSLKPEDTAVYYCAKDGSYQAYGYWGQGTQVTVSS,low polyreactivity
18,QVQLVESGGGLVQAGGSLRLSCAASGFIFGWNAMGWSRQAPGKEREFVAAISWSGGSTYYADSVKGRFTISRDNAKNTVYLQMNSLKPEDTAVYYCAREYHGDSRRYDYWGQGTQVTVSS,high polyreactivity
19,QVQLVESGGGLVQAGGSLRLSCAASGFIFGYNAMGWYRQAPGKERELVAAISSGGSTYYADSVKGRFTISRDNAKNTVYLQMKSLKPEDTAVYYCAVELGYPIQSYALWWDFEYWGQGTQVTVSS,low polyreactivity
20,QVQLVESGGGLVQAGGSLRLSCAASGFIFGYNAMGWYRQAPGKERELVAAISTRGGSTYYADSVKGRFTISRDNAKNTVYLQMNSLKPEDTAVYYCNKVTRVPFDSWGQGTQVTVSS,high polyreactivity
21,QVQLVESGGGLVQAGGSLRLSCAASGFIFGYNAMGWYRQAPGKESEFVAAISSSGASKYYADSVKGRFTISRDNAKNTVYLQMNSLKPEDTAVYYCAARYSWARYASTMGYWGQGTQVTVSS,high polyreactivity
22,QVQLVESGGGLVQAGGSLRLSCAASGFIFGYNDMGWSRQAPGKERELVAAINSGGSTYYADSVKGRFTISRDNAKNTVYLQMNSLKPDDTAVYYCAADYGYFEFDYWGQGTQVTVSS,low polyreactivity

row,Sequence,polyreactivity (PSR sort gate)
1,QVQLVESGGGLVQAGGSLRLSCAASGFIFGYNVMGWYRQAPGKERELVAAISSRGSSTYYADSVKGRFTISRDDVKNTVYLQMNSLKPEDTAVYYCAAYSSYNSWVSRRYGHDYWGQGTQVTVSS,high polyreactivity
2,QVQLVESGGGLVQAGGSLRLSCAASGFIFGYYAMGWYRQAPGKERELVAAINKNGGSTYYADSVKGRFTISRDNAKNTVYLQMNSLKPEDTAVYYCAARARGYAWTYDYWGQGTQVTVSS,high polyreactivity
3,QVQLVESGGGLVQAGGSLRLSCAASGFIFGYYAMGWYRQAPGKERELVAAISRGGITYYADSVKGRFTISRDNAKNTVYLQMNSLKPEDTAVYYCAAPNRYSVPMYYWGQGTQVTVSS,low polyreactivity
4,QVQLVESGGGLVQAGGSLRLSCAASGFIFGYYAMGWYRQAPGKERELVAAITRSGGSTRYADSVKGRFTISRDNANNNVYLQMNSLKPEDSAVYYCATRDGTHGYWGQGTQVTASS,high polyreactivity
5,QVQLVESGGGLVQAGGSLRLSCAASGFIFGYYAMGWYRQAPGKERELVAAITRSGGSTRYADSVKGRFTLSRDNAKNTVYLQMNSLKPEDTAVYYCTAYAPRQLYGYDYWGQGTQVTVSS,high polyreactivity
6,QVQLVESGGGLVQAGGSLRLSCAASGFIFGYYAMGWYRQAPGKERELVAPIKYNDDSTYYADSVKARFTISRDNAKNTVYLQMNSLKPEDTAVYYCAASRFWPGNSYYYRYYYWGQGTQVTVSS,low polyreactivity
7,QVQLVESGGGLVQAGGSLRLSCAASGFIFHDNAMGWYRQAPGKERELVAAISRSGGRTYYADSVKGRFTISRDNAKNTVYLQMNSLKPEDTAVYYCAAVPPPGGLDYWGQGTQVTVSS,high polyreactivity
8,QVQLVESGGGLVQAGGSLRLSCAASGFIFHGYTMGWYRQAPGKEMDMVARISFTGGSTYYADSVKGRFTISRDNAKNTVYLQMNSLKPEDTAVYYCAATYSSYWARYYYWGQGTQVTVSS,high polyreactivity
9,QVQLVESGGGLVQAGGSLRLSCAASGFIFHHYAMGWYRPAPGKERELVAAISKSGGSTYYADSVKGRFTISRDNAKNTVYLQMNSLKPEDTAVYYCAAYKRSGLKYGHWGQGTQVTVSS,high polyreactivity
10,QVQLVESGGGLVQAGGSLRLSCAASGFIFHKYFMGWYTQAPGKERELVAAISRSGASTYYADSVKGRFTISRDNAKNTVYLQMNSLKPEDTAVYYCAKDYQTYSGSSDFDYWGQGTQVTVSS,high polyreactivity
11,QVQLVESGGGLVQAGGSLRLSCAASGFIFHNYAMGWYRQAPGKESELVAVITLRGGSTYYADSVKGRCTISRDNAKNTVYLQMNSLKPEDTAVYYCATGNSKGRRTVRYGYWGQGTQVTVSS,high polyreactivity
12,QVQLVESGGGLVQAGGSLRLSCAASGFIFHQNAMGWYRQAPGKERELVAAITRSGTSTYYADSVKGRFTISRDNAKNTVYLQMNSLKPEDTAVYYCAACLPYGYGYDYWGQGTEVTVSS,low polyreactivity
13,QVQLVESGGGLVQAGGSLRLSCAASGFIFHQNAMGWYRQAPGKERELVAAITRSGTSTYYADSVKGRFTISRDYAKISVYLQMNSLKPVDTAVFYCANDPVRVGRFGYEYWGKGTQVTVSS,low polyreactivity
14,QVQLVESGGGLVQAGGSLRLSCAASGFIFHYNAMGWYRQAPGKERELVAAITSGDSTDYADSVKGRFTISRDNAKNTVYLQMNSLKPEDTAVYYCAAYHREGRRDDYWGQGTQVTVSS,low polyreactivity
15,QVQLVESGGGLVQAGGSLRLSCAASGFIFIANAMGWYRQAPGKERELVAAISDGGSTYYADSVKGRFTISRDNAKNTVYLQMNSLKPEDTGVYYCAKDVTWAGHYDYWGQGTQVTVSS,low polyreactivity
16,QVQLVESGGGLVQAGGSLRLSCAASGFIFIGYAMGWYRHAPGKERELVAAISWSGGSTYYADSVKGRFTISRDNAKNTVYLQMNSLKPEDTAVYYCNAVLYRFAYNYWGQGTQVTVSS,low polyreactivity
17,QVQLVESGGGLVQAGGSLRLSCAASGFIFIKYAMGWYRQAPGKERELVAAISSSGGSTYYADSVKGRFTISRDNAKNTVYLQMNSLKPEDTAVYYCAARGTWSRYGYWGQGTQVTVSS,high polyreactivity
18,QVQLVESGGGLVQAGGSLRLSCAASGFIFIRYAMGWYRQAPGKERELVAAISASGVRTYYADSVKGRFTISRDNAKNTVYLQMNSLKPEDTAVYYCAVCSAWVYGIGRYYWGQGTQVTVSS,high polyreactivity
19,QVQLVESGGGLVQAGGSLRLSCAASGFIFIRYAMGWYRQAPGKERELVAAISPSGGSTYYADSVKGRFTISRDNAKNTVYLQMNSLKPEDTAVYYCAREWRTYYYFWDHYYIYDYWGQGTQVTVSS,high polyreactivity
20,QVQLVESGGGLVQAGGSLRLSCAASGFIFISYMGCDRQAPGKERELVAAISWSGTRTYYADSVKGRFTISRDNAKNTVYLQMNSLKPEDTAVYYCAARKYYDRYFYWGQGTQVTVSS,low polyreactivity
21,QVQLVESGGGLVQAGGSLRLSCAASGFIFIYNAMGWYRQAPGKEREMVAAITGSDGGTFYADSVKGRFTISRDNAKNTVYLQLNSLKPEDTAVYYCNADNGSRQSRDGYESWGQGTQVTVSS,low polyreactivity
